The values below come from patent US20150346192A1.

Assay [1] deals with hypothetical protein LOC297607 (rat) (UniProt D4A770). Kind of assay: IP of RBL-2H3 lysate on nickel beads, MS/MS ProtScore; 2nd of 3 experiments.
Assay [2] has the same target. The experiment in a line: IP of RBL-2H3 lysate on nickel beads, MS/MS ProtScore; 1st of 3 experiments.
Assay [3] has the same target. The experiment in a line: IP of RBL-2H3 lysate on nickel beads, MS/MS ProtScore; 3rd of 3 experiments.

hypothetical protein LOC297607 (rat), sequence (D4A770 whole entry): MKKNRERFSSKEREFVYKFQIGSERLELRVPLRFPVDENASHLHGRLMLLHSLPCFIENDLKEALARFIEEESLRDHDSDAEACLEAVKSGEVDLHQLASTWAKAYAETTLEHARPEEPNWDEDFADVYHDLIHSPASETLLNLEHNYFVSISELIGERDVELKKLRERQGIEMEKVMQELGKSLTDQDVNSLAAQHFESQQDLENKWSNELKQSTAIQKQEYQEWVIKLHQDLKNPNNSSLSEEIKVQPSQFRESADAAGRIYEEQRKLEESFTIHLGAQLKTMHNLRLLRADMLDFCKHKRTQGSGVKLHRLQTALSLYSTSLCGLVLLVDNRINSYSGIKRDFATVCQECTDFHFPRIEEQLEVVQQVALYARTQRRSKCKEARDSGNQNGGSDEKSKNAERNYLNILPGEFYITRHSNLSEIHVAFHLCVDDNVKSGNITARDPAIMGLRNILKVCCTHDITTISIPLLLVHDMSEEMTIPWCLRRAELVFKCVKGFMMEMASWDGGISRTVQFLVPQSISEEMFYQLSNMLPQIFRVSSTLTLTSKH

As for irrelevant VH, the values for the Protscore IP in assay [1], in assay [2] and in assay [3] were 0, 0 and 2, respectively.
